The text below walks through data of the supplement of paper PMC7877785.

± gives the uncertainty stated by the source.

The series in a line: self-splicing fitness, log relative to wild type (ln ratio); higher = more splicing; Tetrahymena group I intron in knt gene, E. coli kanamycin selection, DiMSum; sequences stand for … in CUCUCU…GGAGGGAAAAGUUAUCAGGCAUGCACCUGGUAGCUAGUCUUUAAACCAAUAGAUUGCAUCGGUUUAAAAGGCAAGACCGUCAAAUUGCGGGAAAGGGGUCAACAGCCGUUCAGUACCAAGUCUCAGGGGAAACUUUGAGAUGGCCUUGCAAAGGGUAUGGUAAUAAGCUGACGGACAUGGUCCUAACCACGCAGCCAAGUCCUAAGUCAACAGAUCUUCUGUUGAUAUGGAUGCAGUUCACAGACUAAAUGUCGGUCGGGGAAGAUGUAUUCUUCUCAUAAGAUAUAGUCGGACCUCUCCUUAAUGGGAGCUAGCGGAUGAAGUGAUGCAACACUGGAGCCGCUGGGAACUAAUUUGUAUGCGAAAGUAUAUUGAUUAGUUUUGGAGUACUCGUGGUCG
Summed up:
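The eight P1ex-region nucleotides of an intron in the knt kanamycin-resistance gene on pET-22b(+) were all randomised and the library put into E. coli BL21(DE3). Six replicate transformations were grown overnight at 37°C or 30°C on LB agar with or without 25 μg/mL kanamycin, together with 100 μg/mL carbenicillin, 50 μM IPTG and 0.2% rhamnose. Colonies were pooled and amplicon-sequenced on an Illumina HiSeq 2500. Fitness from DiMSum is the error-weighted combination of wild-type-normalised replicate fold changes, kanamycin over none.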

Consider AACUAGCAAUAUUACGCGUU, for which the “self-splicing fitness (ln)” value by setting is: (30 °C) -3.51 ± 0.19; (37 °C) -2.48 ± 0.29.
The corresponding values for UCGCAGCAAUAUUACGUUGU are -2.56 ± 0.2 and -1.73 ± 0.21.
On to GUCGAGCAAUAUUACGUGGG, for which the “self-splicing fitness (ln)” value by setting is: (30 °C) -2.55 ± 0.21; (37 °C) -0.374 ± 0.14.
As for UUGAAGCAAUAUUACGUUCU, the “self-splicing fitness (ln)” value runs as follows: (30 °C) 0.25 ± 0.084; (37 °C) -0.378 ± 0.1.
On to UCAAAGCAAUAUUACGGUUU, for which the “self-splicing fitness (ln)” value (30 °C) is -3.06 ± 0.21 and the “self-splicing fitness (ln)” value (37 °C) is -3 ± 0.27.
The corresponding values for GCUAAGCAAUAUUACGAGCU are -2.25 ± 0.33 and -0.165 ± 0.31.
As for UUGAAGCAAUAUUACGGGCC, the “self-splicing fitness (ln)” value (37 °C) was -2.14 ± 0.42.
As to GAGAAGCAAUAUUACGAACA, the “self-splicing fitness (ln)” value (30 °C) is -1.05 ± 0.17 and the “self-splicing fitness (ln)” value (37 °C) is -1.57 ± 0.2.
The matching figures for UGCCAGCAAUAUUACGCUUG: -2.85 ± 0.16 and -2.33 ± 0.19.
The matching figures for AAAAAGCAAUAUUACGUCGG: -1.36 ± 0.082 and -1.39 ± 0.1.
CAACAGCAAUAUUACGUCCA: the “self-splicing fitness (ln)” value is -1.75 ± 0.11 (30 °C) and -1.35 ± 0.13 (37 °C).
The matching figures for CUGCAGCAAUAUUACGUACU: -2.89 ± 0.2 and -1.69 ± 0.21.
The matching figures for GAAGAGCAAUAUUACGAUAA: -3.7 ± 0.29 and -2.11 ± 0.22.
The matching figures for AGGUAGCAAUAUUACGUCGG: -2.803 ± 0.022 and -1.63 ± 0.036.
For AGCUAGCAAUAUUACGACUC, the “self-splicing fitness (ln)” value is, setting by setting: (30 °C) -2.01 ± 0.16; (37 °C) -1.24 ± 0.15.
The matching figures for AUGCAGCAAUAUUACGCGCA: -1.91 ± 0.14 and -1.39 ± 0.099.
On to CCGUAGCAAUAUUACGUAUC, for which, for the setting “37 °C”, the “self-splicing fitness (ln)” value was -2.65 ± 0.29.
For the sequence AGGAAGCAAUAUUACGCGCC, the “self-splicing fitness (ln)” value runs as follows: (30 °C) -1.61 ± 0.29; (37 °C) -0.761 ± 0.27.
The corresponding values for CAGAAGCAAUAUUACGUGAG are -1.05 ± 0.064 and -0.806 ± 0.076.
The matching figures for GCACAGCAAUAUUACGUGUC: -2.98 ± 0.12 and -2.05 ± 0.17.
The corresponding values for GGCAAGCAAUAUUACGGCCC are -3.62 ± 0.36 and -1.85 ± 0.3.
Regarding CCUCAGCAAUAUUACGCUCG, the “self-splicing fitness (ln)” value (30 °C) is -2.8 ± 0.16 and the “self-splicing fitness (ln)” value (37 °C) was -2.96 ± 0.24.
The matching figures for AGCUAGCAAUAUUACGGGCU: -3.47 ± 0.27 and -2.91 ± 0.36.
CUCGAGCAAUAUUACGUCAG: the “self-splicing fitness (ln)” value (37 °C) is -0.401 ± 0.39.
For UCAGAGCAAUAUUACGCACA, the “self-splicing fitness (ln)” value runs as follows: (30 °C) -1.74 ± 0.29; (37 °C) 0.554 ± 0.43.
The corresponding values for UCACAGCAAUAUUACGGCAG are -2.03 ± 0.12 and -0.996 ± 0.16.
As for GGGCAGCAAUAUUACGAACG, the “self-splicing fitness (ln)” value is, setting by setting: (30 °C) -1.18 ± 0.12; (37 °C) 0.475 ± 0.17.
Take GUGAAGCAAUAUUACGCAUC: the “self-splicing fitness (ln)” value (37 °C) is -1.69 ± 0.49.
For CGCCAGCAAUAUUACGGUCU, the “self-splicing fitness (ln)” value was -0.989 ± 0.061 (30 °C) and -0.324 ± 0.076 (37 °C).
The matching figures for CCGGAGCAAUAUUACGGUUG: -1.16 ± 0.14 and -1.25 ± 0.16.
The matching figures for UUAUAGCAAUAUUACGAAAU: -3.75 ± 0.34 and -1.34 ± 0.3.
In the case of GGUAAGCAAUAUUACGUGAU, the “self-splicing fitness (ln)” value was -1.64 ± 0.099 (30 °C) and -1.68 ± 0.12 (37 °C).
In the case of AUAAAGCAAUAUUACGUCUA, the “self-splicing fitness (ln)” value by setting is: (30 °C) 0.308 ± 0.078; (37 °C) 0.497 ± 0.099.
The matching figures for AGCUAGCAAUAUUACGUUGG: -3.61 ± 0.19 and -2.03 ± 0.18.
The matching figures for GUGCAGCAAUAUUACGUCUA: -0.238 ± 0.078 and 0.283 ± 0.083.
The matching figures for UCACAGCAAUAUUACGUCGC: -2.99 ± 0.19 and -2.13 ± 0.19.
GUAAAGCAAUAUUACGUUGC: the “self-splicing fitness (ln)” value (30 °C) is -2.38 ± 0.1 and the “self-splicing fitness (ln)” value (37 °C) was -3.2 ± 0.26.
The corresponding values for UCCAAGCAAUAUUACGCCUC are -2.33 ± 0.29 and -2.53 ± 0.28.
The corresponding values for AUGCAGCAAUAUUACGUCAG are -2.17 ± 0.092 and -1.12 ± 0.11.
